The values that follow come from patent US20210130436A1.

One test addresses PD-L1 (human) (UniProt Q9NZQ7). Description: cell-based or functional assay.
Another test addresses CD28 (human) (UniProt P10747). The test is described as follows: cell-based or functional assay.

PD-L1 (human), sequence (Q9NZQ7 19-290): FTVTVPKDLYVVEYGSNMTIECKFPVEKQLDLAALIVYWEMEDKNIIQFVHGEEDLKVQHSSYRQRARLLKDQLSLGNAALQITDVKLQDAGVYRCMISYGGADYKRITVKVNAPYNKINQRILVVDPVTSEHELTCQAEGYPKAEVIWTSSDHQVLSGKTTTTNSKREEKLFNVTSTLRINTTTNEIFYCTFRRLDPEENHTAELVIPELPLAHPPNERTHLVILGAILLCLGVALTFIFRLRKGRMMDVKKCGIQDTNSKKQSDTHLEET
WT CD80 ECD-Fc (inert) (Fc fusion), sequence (chain): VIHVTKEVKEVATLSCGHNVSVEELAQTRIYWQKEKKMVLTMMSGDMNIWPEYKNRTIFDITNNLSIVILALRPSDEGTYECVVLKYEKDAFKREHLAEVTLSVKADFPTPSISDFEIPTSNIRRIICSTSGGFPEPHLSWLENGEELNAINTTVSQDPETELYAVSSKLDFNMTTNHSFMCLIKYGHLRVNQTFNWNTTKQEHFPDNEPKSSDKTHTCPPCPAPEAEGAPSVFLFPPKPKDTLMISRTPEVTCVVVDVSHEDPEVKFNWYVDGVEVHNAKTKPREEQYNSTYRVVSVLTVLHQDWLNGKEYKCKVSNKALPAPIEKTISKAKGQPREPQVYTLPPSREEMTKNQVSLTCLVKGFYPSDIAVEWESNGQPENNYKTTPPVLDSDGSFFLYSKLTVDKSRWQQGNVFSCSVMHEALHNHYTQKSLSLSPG

Consider “CD80 IgV-Fc E35D/M43I/M47L/L85M (from UniProt P33681 35-141) (Fc fusion)”, for which the Jurkat/IL2 + CHO/OKT3/PD-L1 reporter assay, RLU at CD80 Conc 5.0 nM in the test with PD-L1 (human) turned out to be 1430 RLU.
As to “CD80 IgV-Fc E35D/M47L/A71G (from UniProt P33681 35-141) (Fc fusion)”, in the test with PD-L1 (human), the Jurkat/IL2 + CHO/OKT3/PD-L1 reporter assay, RLU at CD80 Conc 5.0 nM is 1950 RLU.
Same read-out and setting: the value for “CD80 IgV-Fc E35D/M47L/A71G/L85M (from UniProt P33681 35-141) (Fc fusion)” was 1510 RLU; that for “CD80 IgV-Fc E35D/M47V (from UniProt P33681 35-141) (Fc fusion)” was 1350 RLU; that for “CD80 IgV-Fc E35D/M47V/I61V/L85M (from UniProt P33681 35-141) (Fc fusion)” was 1180 RLU.
On the same count and under the same terms, to “CD80 IgV-Fc E35D/M47V/L85M/R94Q (from UniProt P33681 35-141) (Fc fusion)” belongs 466 RLU; to “CD80 IgV-Fc E35D/M47V/T62S/L85Q (from UniProt P33681 35-141) (Fc fusion)”, 1400 RLU; to “CD80 IgV-Fc E35D/N48K/L72V (from UniProt P33681 35-141) (Fc fusion)”, 1730 RLU.
On to “CD80 IgV-Fc E35D/T41S/N48T (from UniProt P33681 35-141) (Fc fusion)”, for which the Jurkat/IL2 + CHO/OKT3/PD-L1 reporter assay, RLU at CD80 Conc 5.0 nM in the test with PD-L1 (human) is 1140 RLU.
Same read-out and setting: the value for “CD80 IgV-Fc H18Y/E35D/M47L/A71G/A91S (from UniProt P33681 35-141) (Fc fusion)” was 1900 RLU.
The same measure, in the same setting: to “CD80 IgV-Fc M43I/M47L/A71G (from UniProt P33681 35-141) (Fc fusion)” belongs 1640 RLU.
As for “CD80 IgV-Fc M47I/A71G (from UniProt P33681 35-141) (Fc fusion)”, the Jurkat/IL2 + CHO/OKT3/PD-L1 reporter assay, RLU at CD80 Conc 5.0 nM with PD-L1 (human) is 1760 RLU.
Turning to “CD80 IgV-Fc Q27H/E35D/M47I (from UniProt P33681 35-141) (Fc fusion)”, the Jurkat/IL2 + CHO/OKT3/PD-L1 reporter assay, RLU at CD80 Conc 5.0 nM with PD-L1 (human) came to 1830 RLU.
The same measure, in the same setting: to “CD80 IgV-Fc Q27L/E35D/M47V/I61V/L85M (from UniProt P33681 35-141) (Fc fusion)” belongs 1170 RLU.
As for “CD80 IgV-Fc V22A/E35D/M47L/A71G (from UniProt P33681 35-141) (Fc fusion)”, in the test with PD-L1 (human), the Jurkat/IL2 + CHO/OKT3/PD-L1 reporter assay, RLU at CD80 Conc 5.0 nM was found to be 2580 RLU.
With “Fc only Control (inert Fc) (from UniProt P0DOX5 218-448)”, in the test with PD-L1 (human), the IL-2 release, primary T cells; K562/OKT3/PD-L1; 10 nM was found to be 143; the RLU, Jurkat/IL2 reporter; K562/OKT3/PD-L1 aAPC, Combination of FcR and/or PD-L1 Dependent Cross-Linking; 0.6 nM amounted to 689 RLU; the RLU, Jurkat/IL2 reporter; K562/OKT3/PD-L1 aAPC, Combination of FcR and/or PD-L1 Dependent Cross-Linking; 1.9 nM was 675 RLU; the RLU, Jurkat/IL2 reporter; K562/OKT3/PD-L1 aAPC, Combination of FcR and/or PD-L1 Dependent Cross-Linking; 5.6 nM worked out at 666 RLU. In the test with PD-L1 (human), the RLU, Jurkat/IL2 reporter; K562/OKT3/PD-L1 aAPC, Combination of FcR and/or PD-L1 Dependent Cross-Linking; 16.7 nM was 694 RLU and the RLU, Jurkat/IL2 reporter; K562/OKT3/PD-L1 aAPC, Combination of FcR and/or PD-L1 Dependent Cross-Linking; 50 nM was 679 RLU. In the test with CD28 (human), this substance gave an IL-2 release, primary T cells; K562/OKT3 (No PD-L1); 1 nM of 7040; an IL-2 release, primary T cells; K562/OKT3 (No PD-L1); 10 nM of 6340; an IL-2 release, primary T cells; K562/OKT3 (No PD-L1); 100 nM of 5510; an RLU, Jurkat/IL2 reporter; K562/OKT3 aAPC, FcR Dependent Cross-Linking (No PD-L1); 0.6 nM of 1400 RLU. Further, in the test with CD28 (human), the RLU, Jurkat/IL2 reporter; K562/OKT3 aAPC, FcR Dependent Cross-Linking (No PD-L1); 1.9 nM came out at 1390 RLU; the RLU, Jurkat/IL2 reporter; K562/OKT3 aAPC, FcR Dependent Cross-Linking (No PD-L1); 5.6 nM turned out to be 1390 RLU; the RLU, Jurkat/IL2 reporter; K562/OKT3 aAPC, FcR Dependent Cross-Linking (No PD-L1); 16.7 nM was 1370 RLU; the RLU, Jurkat/IL2 reporter; K562/OKT3 aAPC, FcR Dependent Cross-Linking (No PD-L1); 50 nM stood at 1370 RLU.
In the test with PD-L1 (human), “WT CD80 ECD-Fc (effector) (from UniProt P33681 35-242) (Fc fusion)” registered an IL-2 release, primary T cells; K562/OKT3/PD-L1; 1 nM of 507; an IL-2 release, primary T cells; K562/OKT3/PD-L1; 10 nM of 3110; an IL-2 release, primary T cells; K562/OKT3/PD-L1; 100 nM of 8390. Besides, in the test with CD28 (human), the IL-2 release, primary T cells; K562/OKT3 (No PD-L1); 1 nM stood at 11400; the IL-2 release, primary T cells; K562/OKT3 (No PD-L1); 10 nM worked out at 20200; the IL-2 release, primary T cells; K562/OKT3 (No PD-L1); 100 nM is 23100.
For the substance WT CD80 ECD-Fc (inert) (Fc fusion), in the test with PD-L1 (human), the RLU, Jurkat/IL2 reporter; K562/OKT3/PD-L1 aAPC, Combination of FcR and/or PD-L1 Dependent Cross-Linking; 0.6 nM is 692 RLU; the RLU, Jurkat/IL2 reporter; K562/OKT3/PD-L1 aAPC, Combination of FcR and/or PD-L1 Dependent Cross-Linking; 1.9 nM turned out to be 705 RLU; the RLU, Jurkat/IL2 reporter; K562/OKT3/PD-L1 aAPC, Combination of FcR and/or PD-L1 Dependent Cross-Linking; 5.6 nM was 847 RLU; the RLU, Jurkat/IL2 reporter; K562/OKT3/PD-L1 aAPC, Combination of FcR and/or PD-L1 Dependent Cross-Linking; 16.7 nM came to 875 RLU. Also, the RLU, Jurkat/IL2 reporter; K562/OKT3/PD-L1 aAPC, Combination of FcR and/or PD-L1 Dependent Cross-Linking; 50 nM with PD-L1 (human) was 1520 RLU. For the same substance, in the test with CD28 (human), the IL-2-luciferase RLU, Jurkat + CHO/OKT3/PD-L1 aAPC, 0.6 nM is 518 RLU; the IL-2-luciferase RLU, Jurkat + CHO/OKT3/PD-L1 aAPC, 1.9 nM was determined as 474 RLU; the IL-2-luciferase RLU, Jurkat + CHO/OKT3/PD-L1 aAPC, 5.6 nM is 505 RLU; the IL-2-luciferase RLU, Jurkat + CHO/OKT3/PD-L1 aAPC, 16.7 nM came out at 462 RLU. In the test with CD28 (human), the IL-2-luciferase RLU, Jurkat + CHO/OKT3 aAPC (no PD-L1), 5.6 nM worked out at 436 RLU; the IL-2-luciferase RLU, Jurkat + CHO/OKT3 aAPC (no PD-L1), 16.7 nM is 412 RLU; the IL-2-luciferase RLU, Jurkat + CHO/OKT3 aAPC (no PD-L1), 50 nM worked out at 420 RLU; the IL-2 release, primary T cells; K562/OKT3 (No PD-L1); 1 nM is 8050. In addition, in the test with CD28 (human), the IL-2 release, primary T cells; K562/OKT3 (No PD-L1); 10 nM came out at 7020; the IL-2 release, primary T cells; K562/OKT3 (No PD-L1); 100 nM was determined as 6480; the RLU, Jurkat/IL2 reporter; K562/OKT3 aAPC, FcR Dependent Cross-Linking (No PD-L1); 0.6 nM turned out to be 1340 RLU; the RLU, Jurkat/IL2 reporter; K562/OKT3 aAPC, FcR Dependent Cross-Linking (No PD-L1); 1.9 nM came out at 1270 RLU. Also, in the test with CD28 (human), the RLU, Jurkat/IL2 reporter; K562/OKT3 aAPC, FcR Dependent Cross-Linking (No PD-L1); 5.6 nM amounted to 1480 RLU; the RLU, Jurkat/IL2 reporter; K562/OKT3 aAPC, FcR Dependent Cross-Linking (No PD-L1); 16.7 nM worked out at 1730 RLU; the RLU, Jurkat/IL2 reporter; K562/OKT3 aAPC, FcR Dependent Cross-Linking (No PD-L1); 50 nM was 2200 RLU.
On to “variant CD80 IgV-Fc (inert) Y31S/E35D/M47L/T79L/E88G (Fc fusion)”, for which, in the test with CD28 (human), the Fold Increase over WT CD80-IgV-Fc, same assay, 50 nM came out at 0.9 fold and the IL-2-luciferase RLU, Jurkat + K562/OKT3/PD-L1 aAPC, 50 nM is 496 RLU.
